According to paper PMC8416954:

Experiments:
[1] = molecular target: ectodomain of human syndecan-4 (natural isoform 2 of SDC-4) (human); assay: SEC-MALS
[2] = molecular target: ectodomain of human syndecan-4 (natural isoform 2 of SDC-4) (human); assay: ion mobility mass spectrometry

stoichiometry N [1]: 2
stoichiometry N [2]: 2
Substance: ectodomain of human syndecan-4 (natural isoform 2 of SDC-4) (domain or fragment)
